From patent US20150246949A1, “Desmoglein 2 (DSG2) Binding Proteins and Uses Therefor” (UNIVERSITY OF WASHINGTON THROUGH ITS CENTER FOR …, priority 2012, published 2015)
Where a chain is given by its changes, count along the chain named. “Also recorded” adds a separate entry of the source.

B1: JO-1: recombinant protein with the Ad3 fiber knob and a domain for self-dimerization of trimeric knobs (SEQ ID NO:27) (protein)
chain: MKVSALKEKVSALKEKVSALKEKVSALKEKVSALKEGSGGGSGGGSGGGSNSIALKNNTLWTGPKPEANCIIEYGKQNPDSKLTLILVKNGGIVNGYVTLMGASDYVNTLFKNKNVSINVELYFDATGHILPDSSSLKTDLELKYKQTADFSARGFMPSTTAYPFVLPNAGTHNENYIFGQCYYKASDGALFPLEVTVMLNKRLPDSRTSYVMTFLWSLNAGLAPETTQATLITSPFTFSYIREDD
B2: JO-4 (protein)
chain: B1 chain with Y177F

Experiments:
[1] = Blood chemistry and blood cell counts after i.v. injection; assay type: in vivo, hDSG2 transgenic mice; settings: for Blood chemistry / Blood cell counts: after i.v. injection; for Blood cell counts: N=3; for Time of nadir of lymphocyte and platelet counts: p.i.
Protocol: (§1) FIG. 11. Pharmacokinetics, toxicity, and immunogenicity of JO-4. A) Serum clearance of JO-1 and JO-4. hDSG2 transgenic mice with subcutaneous TC1-hDSG2 tumors (˜600 mm^3) were intravenously injected with JO-1 or JO-4 (2 mg/kg) and serum samples were analyzed for by ELISA. N=3. Note that the y-axis has a log scale. B) Lymphocyte and platelet counts in hDSG2/TC1-hDSG2 transgenic mice after JO-1 or JO-4 injection. N=3. C) Therapy studies in immunocompetent hDSG2 transgenic mice with TC1-hDSG2 tumors. When tumors reached a volume of ˜80 mm^3, JO-1 or JO-4 (2 mg/kg) or PBS was injected intravenously followed one hour later by PLD/Doxil (i.v. 1.5 mg/kg). Treatment was repeated as indicated by arrows. Tumors were then allowed to re-grow for about two weeks. From day 15 on serum anti-JO-1/J)-4 antibodies were detectable by ELISA. Two more treatment cycles were performed at day 28 and day 35. […] The difference between JO-1/PLD vs JO-4/PLD is significant from day 31 on. N=10.
Two of the affinity enhanced version of JO-1, Y293D and V250F were analyzed in in vivo assay. We called these mutants JO-2 and JO-4, respectively. The first study was performed in a xenograft model derived from A549 cells similar to the study described for FIG. 5B. […] Additional studies were performed in xenograft tumors derived from ovc316 cells (30, 32). Ovc316 cells are Her2/neu positive epithelial tumor cells derived from an ovarian cancer biopsy. These cells can undergo EMT and the reverse process, mesenchymal-to-epithelial-transition (MET), under specific conditions in vitro and in vivo. A subfraction of ovc316 cells that is positive for Nanog, CD133, and E-cadherin is enriched for cancer stem cells, i.e. self-renewing cells with pluripotent potential and tumor forming ability (30). Ovc316 cells therefore closely model the heterogeneity and plasticity seen in tumors in situ. […] Finally, we tested JO-4 in a model for triple-negative breast cancer (TNBC). TNBC is characterized by a lack or minimal expression of estrogen receptor (ER), progesterone receptor (PR) and the absence of Her2/neu overexpression. TNBC accounts for 15% of all breast cancers. Overall survival is poor compared with that in patients who have other phenotypes. A characteristic feature of TNBC is high levels of DSG2 and epithelial junctions. Promising clinical results in the treatment of TNBS have been achieved with nanoparticle, albumin-conjugated paclitaxel (nab-paclitaxel/Abraxane™) alone or in combination with the EGFR-targeting mAb cetuximab/Erbitux™ (38). […] Because of its therapeutic relevance, we further studied JO-4 in an adequate mouse tumor model. […] These mice were subcutaneously implanted with syngeneic TC1-hDSG tumors. When tumors reached a volume of ˜600 mm^3, JO-1 or JO-4 was intravenously injected for safety and efficacy studies. […] After one hour post-injection JO-1 and JO-4 concentration reached a plateau with ˜100 ng/ml. We also analyzed hematological parameters after i.v. JO-1 and JO-4 injection.

[2] = Serum clearance of JO-1 and JO-4 by ELISA; assay type: in vivo, hDSG2 transgenic mice; settings: 2 mg/kg i.v.; for Decline of serum concentration within an hour after injection: TC1-hDSG2 tumors ~600 mm^3, N=3; for Serum concentration plateau: after one hour post-injection
Protocol: as §1
Two of the affinity enhanced version of JO-1, Y293D and V250F were analyzed in in vivo assay. We called these mutants JO-2 and JO-4, respectively. The first study was performed in a xenograft model derived from A549 cells similar to the study described for FIG. 5B. […] Additional studies were performed in xenograft tumors derived from ovc316 cells (30, 32). Ovc316 cells are Her2/neu positive epithelial tumor cells derived from an ovarian cancer biopsy. These cells can undergo EMT and the reverse process, mesenchymal-to-epithelial-transition (MET), under specific conditions in vitro and in vivo. A subfraction of ovc316 cells that is positive for Nanog, CD133, and E-cadherin is enriched for cancer stem cells, i.e. self-renewing cells with pluripotent potential and tumor forming ability (30). Ovc316 cells therefore closely model the heterogeneity and plasticity seen in tumors in situ. […] Finally, we tested JO-4 in a model for triple-negative breast cancer (TNBC). TNBC is characterized by a lack or minimal expression of estrogen receptor (ER), progesterone receptor (PR) and the absence of Her2/neu overexpression. TNBC accounts for 15% of all breast cancers. Overall survival is poor compared with that in patients who have other phenotypes. A characteristic feature of TNBC is high levels of DSG2 and epithelial junctions. Promising clinical results in the treatment of TNBS have been achieved with nanoparticle, albumin-conjugated paclitaxel (nab-paclitaxel/Abraxane™) alone or in combination with the EGFR-targeting mAb cetuximab/Erbitux™ (38). […] Because of its therapeutic relevance, we further studied JO-4 in an adequate mouse tumor model. […] These mice were subcutaneously implanted with syngeneic TC1-hDSG tumors. […] We also analyzed hematological parameters after i.v. JO-1 and JO-4 injection.

[3] = tested on: A549 xenograft tumors; test: Enhancement of irinotecan therapy in A549 xenograft tumors; assay type: in vivo, CB17-SCID/beige mice; settings: 2 mg/kg i.v. one hour before irinotecan 37.5 mg/kg i.v.; days 15 and 25; N=5
Protocol: FIG. 5. Correlation of reduced DSG2 binding with the ability to open epithelial junctions. A) Transepithelial electrical resistance (TEER) measured on polarized colon cancer T84 cells. Cells were cultured in transwell chambers until the TEER was constant, i.e. tight junctions had formed. A total of 5 μg of dimeric Ad3 fiber knobs in PBS was then added for 1 hour to the apical chamber. TEER was measured at the indicated time points. N=6. For time points 1.5 and 4 hours the difference between JO-1 vs D261N and N186D was significant (p<0.01). The arrows indicate the addition and removal of Ad3 fiber knobs. B) Enhancement of irinotecan therapy. A total of 4×10^6 A549 cells were injected subcutaneously into CB17-SCID/beige mice. Once the tumor reached a volume of ˜100 mm^3 (day 15 after implantation), the mice were injected intravenously with 2 mg/kg JO-1, E299V, N186D, or PBS, followed by an intravenous injection of irinotecan (37.5 mg/kg) one hour later. The treatment was repeated on day 25. N=5. […] The difference between “irinotecan” vs “JO-1+irinotecan” was significant (p<0.01) from day 20 on.
FIG. 10. Combination of affinity-enhanced JO-1 versions with chemotherapy. A) Enhancement of irinotecan (I) therapy. The experimental setting was the same as in FIG. 5B. […] N=5. […] Mammary fat pad tumors were established from primary ovarian cancer ovc316 cells. Treatment was started when tumors reached a volume of 100 mm^3 Mice were injected intravenously with 2 mg/kg JO-1 or with 0.5 mg/kg JO-4, followed by an intravenous injection of PEGylated liposomal doxorubicin (PLD) (1 mg/kg) one hour later. Treatment was repeated weekly. […] A total of 4×10^6 TNBC MDA-MB-231 cells were injected into the mammary fat pad of CB17 SCID-beige mice. JO-4 (2 mg/kg) was intravenously injected 1 hour before the application of cetuximab (C) (10 mg/kg, i.p.) and nab-paclitaxel (nab-P) (5 mg/kg, i.v). Treatment was given weekly. N=10 P<0.01 at day 25 for nab-P+C vs JO-4+nab-P+C.
A549, MDA-MB-231, and ovc316 xenograft tumors were established by injection of the corresponding tumor cells into the mammary fat pad (1:1 with Matrigel) of CB17 mice. TC1-DSG2 tumors were established by subcutaneous injection of TC1-DSG2 cells into DSG2 transgenic mice. JO-0, JO-1, JO-2, or JO-4 were intravenously injected one hour before the application of chemotherapeutic drugs: Irinotecan/Camptosar™ (Pfizer Inc., Groton, Conn.), PEGylated liposomal doxorubicin/Lipodox™ (Sun Pharmaceuticals IN, India), cetuximab/Erbitux™ (ImClone, Somerville, N.J.), nanoparticle albumin conjugated paclitaxel/Abraxane™ (Abraxis Biosciences, Summit N.J.). Tumor volumes were measured three times a week. Each treatment group consisted of a minimum of 5 mice.

Molecule | Blood chemistry [1] | Blood cell counts [1] | Time of nadir of lymphocyte and platelet counts [1] [h] | Decline of serum concentration within an hour after injection [2] | Serum concentration plateau [2] [ng/mL] | Enhancement of irinotecan therapy [3] | Lymphocyte and platelet counts compared with JO-1 ([1]; nadir at 24 hours p.i. and recovery)
B1 | did not show abnormal changes | normal except for lymphocyte and platelet number, which decreased early after injection | 24 | declined more than one order of magnitude | ~100 | enhanced irinotecan therapy; also recorded: significant | –
B2 | did not show abnormal changes | normal except for lymphocyte and platelet number, which decreased early after injection | 24 | declined more than one order of magnitude; also recorded: significantly greater | ~100 | increased irinotecan therapy significantly more than JO-1; also recorded: significantly more efficient than JO-2; also recorded: significant from day 20 on | significantly lower numbers; also recorded: returned to normal levels faster
